Test results as given in article PMC10967792.

Columns and labels:
[1] = molecular target: hCCR7-mNeongreen (CCR7 C-terminally tagged with mNeonGreen) (human) (UniProt P32248)
[2] = molecular target: human CC chemokine receptor 7 (hCCR7), stably expressed (human) (UniProt P32248)

CC chemokine ligand 19 (CCL19) (from UniProt Q99731 22-98)
pEC50 of β-arrestin1 (Arrβ1) recruitment to CCR7 (NanoBRET), CHO-K1 cells [1]: 7.92 -log10(M)
pEC50 of β-arrestin1 (Arrβ1) recruitment to CCR7 (NanoBRET), HEK293A cells [1]: 7.46 -log10(M)
pEC50 of β-arrestin1 (Arrβ1) recruitment to CCR7 (NanoBRET), U87 cells [1]: 7.86 -log10(M)
pEC50 of β-arrestin2 (Arrβ2) recruitment to CCR7 (NanoBRET), CHO-K1 cells [1]: 8.11 -log10(M)
pEC50 of β-arrestin2 (Arrβ2) recruitment to CCR7 (NanoBRET), HEK293A cells [1]: 7.57 -log10(M)
pEC50 of β-arrestin2 (Arrβ2) recruitment to CCR7 (NanoBRET), U87 cells [1]: 7.86 -log10(M)
pEC50 of Gα12 activation (NanoBRET, G protein dissociation), HEK293A cells expressing CCR7 [2]: 7.44 -log10(M)
pEC50 of Gα12 activation (NanoBRET, G protein dissociation), U87 cells expressing CCR7 [2]: 7.81 -log10(M)
pEC50 of Gα13 activation (NanoBRET, G protein dissociation), CHO-K1 cells expressing CCR7 [2]: 8.87 -log10(M)
pEC50 of Gα13 activation (NanoBRET, G protein dissociation), U87 cells expressing CCR7 [2]: 8.77 -log10(M)
pEC50 of Gα15 activation (NanoBRET, G protein dissociation), CHO-K1 cells expressing CCR7 [2]: 8.91 -log10(M)
pEC50 of Gα15 activation (NanoBRET, G protein dissociation), HEK293A cells expressing CCR7 [2]: 7.8 -log10(M)
pEC50 of Gαi1 activation (NanoBRET, G protein dissociation), CHO-K1 cells expressing CCR7 [2]: 8.54 -log10(M)
pEC50 of Gαi1 activation (NanoBRET, G protein dissociation), HEK293A cells expressing CCR7 [2]: 8.63 -log10(M)
pEC50 of Gαi1 activation (NanoBRET, G protein dissociation), U87 cells expressing CCR7 [2]: 8.28 -log10(M)
pEC50 of Gαi2 activation (NanoBRET, G protein dissociation), CHO-K1 cells expressing CCR7 [2]: 8.69 -log10(M)
pEC50 of Gαi2 activation (NanoBRET, G protein dissociation), HEK293A cells expressing CCR7 [2]: 9.03 -log10(M)
pEC50 of Gαi2 activation (NanoBRET, G protein dissociation), U87 cells expressing CCR7 [2]: 8.56 -log10(M)
pEC50 of Gαi3 activation (NanoBRET, G protein dissociation), CHO-K1 cells expressing CCR7 [2]: 8.84 -log10(M)
pEC50 of Gαi3 activation (NanoBRET, G protein dissociation), HEK293A cells expressing CCR7 [2]: 9.61 -log10(M)
pEC50 of Gαi3 activation (NanoBRET, G protein dissociation), U87 cells expressing CCR7 [2]: 8.87 -log10(M)
pEC50 of GαoA activation (NanoBRET, G protein dissociation), CHO-K1 cells expressing CCR7 [2]: 9.37 -log10(M)
pEC50 of GαoA activation (NanoBRET, G protein dissociation), HEK293A cells expressing CCR7 [2]: 8.3 -log10(M)
pEC50 of GαoA activation (NanoBRET, G protein dissociation), U87 cells expressing CCR7 [2]: 8.59 -log10(M)
pEC50 of GαoB activation (NanoBRET, G protein dissociation), CHO-K1 cells expressing CCR7 [2]: 8.96 -log10(M)
pEC50 of GαoB activation (NanoBRET, G protein dissociation), HEK293A cells expressing CCR7 [2]: 8.85 -log10(M)
pEC50 of GαoB activation (NanoBRET, G protein dissociation), U87 cells expressing CCR7 [2]: 8.8 -log10(M)
pEC50 of Gαq activation (NanoBRET, G protein dissociation), CHO-K1 cells expressing CCR7 [2]: 8.77 -log10(M)
pEC50 of Gαq activation (NanoBRET, G protein dissociation), U87 cells expressing CCR7 [2]: 8.41 -log10(M)
pEC50 of GαsL activation (NanoBRET, G protein dissociation), CHO-K1 cells expressing CCR7 [2]: 8.97 -log10(M)
pEC50 of GαsL activation (NanoBRET, G protein dissociation), HEK293A cells expressing CCR7 [2]: 7.49 -log10(M)
pEC50 of GαsL activation (NanoBRET, G protein dissociation), U87 cells expressing CCR7 [2]: 8.95 -log10(M)
pEC50 of GαsS activation (NanoBRET, G protein dissociation), CHO-K1 cells expressing CCR7 [2]: 8.58 -log10(M)
pEC50 of GαsS activation (NanoBRET, G protein dissociation), U87 cells expressing CCR7 [2]: 8.65 -log10(M)

CC chemokine ligand 21 (CCL21) (from UniProt O00585 24-134)
pEC50 of β-arrestin1 (Arrβ1) recruitment to CCR7 (NanoBRET), CHO-K1 cells [1]: 7.52 -log10(M)
pEC50 of β-arrestin1 (Arrβ1) recruitment to CCR7 (NanoBRET), HEK293A cells [1]: 7.15 -log10(M)
pEC50 of β-arrestin1 (Arrβ1) recruitment to CCR7 (NanoBRET), U87 cells [1]: 6.9 -log10(M)
pEC50 of β-arrestin2 (Arrβ2) recruitment to CCR7 (NanoBRET), CHO-K1 cells [1]: 7.69 -log10(M)
pEC50 of β-arrestin2 (Arrβ2) recruitment to CCR7 (NanoBRET), HEK293A cells [1]: 7.02 -log10(M)
pEC50 of β-arrestin2 (Arrβ2) recruitment to CCR7 (NanoBRET), U87 cells [1]: 7.01 -log10(M)
pEC50 of Gα12 activation (NanoBRET, G protein dissociation), CHO-K1 cells expressing CCR7 [2]: 7.94 -log10(M)
pEC50 of Gα12 activation (NanoBRET, G protein dissociation), HEK293A cells expressing CCR7 [2]: 6.79 -log10(M)
pEC50 of Gα12 activation (NanoBRET, G protein dissociation), U87 cells expressing CCR7 [2]: 7.5 -log10(M)
pEC50 of Gα13 activation (NanoBRET, G protein dissociation), CHO-K1 cells expressing CCR7 [2]: 8.53 -log10(M)
pEC50 of Gα13 activation (NanoBRET, G protein dissociation), U87 cells expressing CCR7 [2]: 8.7 -log10(M)
pEC50 of Gα15 activation (NanoBRET, G protein dissociation), CHO-K1 cells expressing CCR7 [2]: 7.56 -log10(M)
pEC50 of Gα15 activation (NanoBRET, G protein dissociation), HEK293A cells expressing CCR7 [2]: 6.74 -log10(M)
pEC50 of Gαi1 activation (NanoBRET, G protein dissociation), CHO-K1 cells expressing CCR7 [2]: 8.37 -log10(M)
pEC50 of Gαi1 activation (NanoBRET, G protein dissociation), HEK293A cells expressing CCR7 [2]: 8.47 -log10(M)
pEC50 of Gαi1 activation (NanoBRET, G protein dissociation), U87 cells expressing CCR7 [2]: 8.02 -log10(M)
pEC50 of Gαi2 activation (NanoBRET, G protein dissociation), CHO-K1 cells expressing CCR7 [2]: 8.91 -log10(M)
pEC50 of Gαi2 activation (NanoBRET, G protein dissociation), HEK293A cells expressing CCR7 [2]: 8.76 -log10(M)
pEC50 of Gαi2 activation (NanoBRET, G protein dissociation), U87 cells expressing CCR7 [2]: 8.27 -log10(M)
pEC50 of Gαi3 activation (NanoBRET, G protein dissociation), CHO-K1 cells expressing CCR7 [2]: 8.84 -log10(M)
pEC50 of Gαi3 activation (NanoBRET, G protein dissociation), HEK293A cells expressing CCR7 [2]: 9.33 -log10(M)
pEC50 of Gαi3 activation (NanoBRET, G protein dissociation), U87 cells expressing CCR7 [2]: 8.6 -log10(M)
pEC50 of GαoA activation (NanoBRET, G protein dissociation), CHO-K1 cells expressing CCR7 [2]: 9.27 -log10(M)
pEC50 of GαoA activation (NanoBRET, G protein dissociation), HEK293A cells expressing CCR7 [2]: 7.97 -log10(M)
pEC50 of GαoA activation (NanoBRET, G protein dissociation), U87 cells expressing CCR7 [2]: 8.33 -log10(M)
pEC50 of GαoB activation (NanoBRET, G protein dissociation), CHO-K1 cells expressing CCR7 [2]: 8.97 -log10(M)
pEC50 of GαoB activation (NanoBRET, G protein dissociation), HEK293A cells expressing CCR7 [2]: 8.34 -log10(M)
pEC50 of GαoB activation (NanoBRET, G protein dissociation), U87 cells expressing CCR7 [2]: 8.45 -log10(M)
pEC50 of Gαq activation (NanoBRET, G protein dissociation), CHO-K1 cells expressing CCR7 [2]: 8.45 -log10(M)
pEC50 of Gαq activation (NanoBRET, G protein dissociation), U87 cells expressing CCR7 [2]: 8.1 -log10(M)
pEC50 of GαsL activation (NanoBRET, G protein dissociation), HEK293A cells expressing CCR7 [2]: 6.79 -log10(M)
pEC50 of GαsL activation (NanoBRET, G protein dissociation), U87 cells expressing CCR7 [2]: 8.99 -log10(M)
pEC50 of GαsS activation (NanoBRET, G protein dissociation), CHO-K1 cells expressing CCR7 [2]: 8.1 -log10(M)
pEC50 of GαsS activation (NanoBRET, G protein dissociation), U87 cells expressing CCR7 [2]: 8.39 -log10(M)
